The series is described as follows: protein stability index of a GFP-peptide fusion (GPS, HEK-293T) (PSI 1-6); higher = more stable. As to conditions: c terminus: a fixed tail appended.

± gives the standard deviation.
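Note: 24-mer peptide tiles fused after GFP, lentivirally expressed, FACS-sorted into six equal bins by GFP/DsRed ratio, decoded by Illumina sequencing, PSI is the read-weighted mean bin number.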

CDECGKHFSQGSALILHQRIHSGE [ZNF24]: the protein stability index (treatment: DMSO) was 5.16 ± 0.2 and the protein stability index (treatment: MLN4924 1 uM, 8 h) is 5.43 ± 0.2.

For the sequence CDPGLTAFEPEALGNLVEGMDFHR [CAMK2D], the protein stability index runs as follows: (treatment: DMSO) 4.33 ± 0.43; (treatment: MLN4924 1 uM, 8 h) 4.21 ± 0.24.

For CDSTNAAIAKQALKKPIKGKQAPR [KMT5A], the protein stability index runs as follows: (treatment: DMSO) 4.79 ± 0.22; (treatment: MLN4924 1 uM, 8 h) 4.74 ± 0.29.

CEHICVNSDDSYTCECLEGFRLAE [MATN2] yielded a protein stability index (treatment: DMSO) of 4.11 ± 0.69 and a protein stability index (treatment: MLN4924 1 uM, 8 h) of 4.71 ± 0.62.

In the case of CEKFLQEVDFFQRYFIADLPHLQD [INTS4], the protein stability index reads like this: (treatment: DMSO) 2.49 ± 0.54; (treatment: MLN4924 1 uM, 8 h) 1.95 ± 0.48.

CFPRLDINVSKGINHLLKSPFSVH [PRIM1] gave a protein stability index (treatment: DMSO) of 2.14 ± 0.68 and a protein stability index (treatment: MLN4924 1 uM, 8 h) of 2.05 ± 0.36.

As to CFVEFHEHRHAAAALAAMNGRKIM [TIA1], the protein stability index came to 2.71 ± 0.14 (treatment: DMSO) and 2.81 ± 0.17 (treatment: MLN4924 1 uM, 8 h).

On to CGRKLAKDGEYCWRWTGFNFGFDL [GMCL1], for which the protein stability index stood at 2.72 ± 0.54 (treatment: DMSO) and 2.71 ± 0.91 (treatment: MLN4924 1 uM, 8 h).

With CINRFQQVESRWGYSGTSDRIRFT [BTBD1], the protein stability index is, setting by setting: (treatment: DMSO) 1.8 ± 0.12; (treatment: MLN4924 1 uM, 8 h) 2.07 ± 0.31.

Regarding CMSFNPETRRLSIGLDNGTISEFI [WDFY2], the protein stability index stood at 2.42 ± 0.56 (treatment: DMSO) and 2.89 ± 0.38 (treatment: MLN4924 1 uM, 8 h).

In the case of CPPLHIPGSMSEVQELCKQLHAKI [TNNI2], the protein stability index was determined as 2.88 ± 0.3 (treatment: DMSO) and 2.93 ± 0.14 (treatment: MLN4924 1 uM, 8 h).

CPVVRNGSVAVVEAECEKSSATTY [SLC6A17]: the protein stability index is, setting by setting: (treatment: DMSO) 4.64 ± 0.44; (treatment: MLN4924 1 uM, 8 h) 4.82 ± 0.17.

For the sequence CRPLQFQPSKSHKKVLKKMLKFLA [ATE1], under “treatment: MLN4924 1 uM, 8 h”, the protein stability index turned out to be 3.43 ± 0.17.

With DALNRRKAQLLARVNKEHEHKLKV [TRIM9], the protein stability index is, setting by setting: (treatment: DMSO) 3.47 ± 0.11; (treatment: MLN4924 1 uM, 8 h) 3.29 ± 0.092.

Take DALSSPTSVQEADETTRSDISERP [C2CD2L]: the protein stability index turned out to be 5.64 ± 0.35 (treatment: DMSO) and 5.61 ± 0.24 (treatment: MLN4924 1 uM, 8 h).

Turning to DANLLNDRVLRAMLKAEETCAPSV [CCND1], the protein stability index (treatment: DMSO) was determined as 3.33 ± 0.34 and the protein stability index (treatment: MLN4924 1 uM, 8 h) is 3.61 ± 0.23.

For DATWAAVAACTKEIDTQGRHLAHS [C10orf62], the protein stability index is 4.04 ± 0.24 (treatment: DMSO) and 4.09 ± 0.39 (treatment: MLN4924 1 uM, 8 h).

DAWSGSNAYHIERLMSFRPICSAN [CRYBA1]: the protein stability index by setting is: (treatment: DMSO) 2.46 ± 0.26; (treatment: MLN4924 1 uM, 8 h) 2.55 ± 0.26.

Regarding DCEVFRQRFRQFQYREAAGPHEAF [ZNF449], the protein stability index is 2.94 ± 0.29 (treatment: DMSO) and 2.93 ± 0.28 (treatment: MLN4924 1 uM, 8 h).

Regarding DCMAALGLAYDRKKVSKAAILARI [SCD], the protein stability index runs as follows: (treatment: DMSO) 1.94 ± 0.3; (treatment: MLN4924 1 uM, 8 h) 2.29 ± 0.2.

With DDKLFQKLAKVYSYAHGWMFQGWN [CPN1], the protein stability index stood at 2.45 ± 0.51 (treatment: DMSO) and 2.25 ± 0.45 (treatment: MLN4924 1 uM, 8 h).

On to DDLVPKGKKFLLLSINRYERKKNL [ALG2], for which the protein stability index is, setting by setting: (treatment: DMSO) 2.58 ± 0.092; (treatment: MLN4924 1 uM, 8 h) 2.67 ± 0.29.

Regarding DDSCQDQPGTNCALAIKVNLCGHW [ADAMTSL2], the protein stability index came to 2.57 ± 0.1 (treatment: DMSO) and 2.65 ± 0.46 (treatment: MLN4924 1 uM, 8 h).

On to DEDDSTSRFSSSTEQSSASRLMRR [DVL3], for which the protein stability index runs as follows: (treatment: DMSO) 5.28 ± 0.25; (treatment: MLN4924 1 uM, 8 h) 5.36 ± 0.26.

For the sequence DEKAKPRDRQQAPGLGQESKAPGS [TLE6], the protein stability index (treatment: DMSO) was 5.49 ± 0.21 and the protein stability index (treatment: MLN4924 1 uM, 8 h) is 5.49 ± 0.21.

DEPQETAYRTQVSSCCLHICQGIR [PKD2L1]: the protein stability index (treatment: DMSO) was determined as 2.8 ± 0.61 and the protein stability index (treatment: MLN4924 1 uM, 8 h) was 3.1 ± 0.46.

As for DFWLNMAALTEALQRQAEQNPTAS [FCHO1], the protein stability index runs as follows: (treatment: DMSO) 2.51 ± 0.21; (treatment: MLN4924 1 uM, 8 h) 2.47 ± 0.35.

The sequence DGGEPQSVQVDGQARTQKLQGLIP [TNXB] had a protein stability index (treatment: MLN4924 1 uM, 8 h) of 5.22 ± 0.99.

Take DHPGTPPHKTFRKLRLFDTPHTPK [WEE1]: the protein stability index reads like this: (treatment: DMSO) 3.88 ± 0.11; (treatment: MLN4924 1 uM, 8 h) 3.98 ± 0.15.

For the sequence DISIHHFTCDEENVFAAVGRGLYV [WDR41], the protein stability index runs as follows: (treatment: DMSO) 2.7 ± 0.35; (treatment: MLN4924 1 uM, 8 h) 2.61 ± 0.43.

As for DISLGQKEDGEPSWREAKVSWFGS [PWWP2B], the protein stability index by setting is: (treatment: DMSO) 3.15 ± 0.14; (treatment: MLN4924 1 uM, 8 h) 3.39 ± 0.14.

The sequence DKCSAPKIWRTPNGKTIEMDTQFT [IQUB] displayed a protein stability index (treatment: DMSO) of 3.53 ± 0.28 and a protein stability index (treatment: MLN4924 1 uM, 8 h) of 3.6 ± 0.21.

For DKENIYILLEYCSRRSMAHILKAR [PLK2], the protein stability index was 2.2 ± 0.29 (treatment: DMSO) and 2.55 ± 0.43 (treatment: MLN4924 1 uM, 8 h).

For DKFVATMYHYLQFAYYKLNDVRQA [P3H4], the protein stability index was determined as 2.75 ± 0.39 (treatment: DMSO) and 2.77 ± 0.47 (treatment: MLN4924 1 uM, 8 h).

Turning to DLEEERREEEEKTPPETKPDPPVN [PCMTD2], the protein stability index runs as follows: (treatment: DMSO) 5.64 ± 0.37; (treatment: MLN4924 1 uM, 8 h) 5.48 ± 0.48.

Turning to DLMVEATPRRVFANAHTYHINSIS [PPP2R2B], the protein stability index by setting is: (treatment: DMSO) 2.58 ± 0.23; (treatment: MLN4924 1 uM, 8 h) 2.49 ± 0.3.

For DMRRDEEGSLCAAHLPKAQLSGYA [FBF1], the protein stability index runs as follows: (treatment: DMSO) 4.12 ± 0.25; (treatment: MLN4924 1 uM, 8 h) 4.15 ± 0.25.
